Assay results as given in publication PMC11515964.

Molecular target: T1, Full-length human GPR1, wild type, N-terminal FLAG tag (pcDNA3.1(+)) (human) (UniProt P46091)
T1 sequence: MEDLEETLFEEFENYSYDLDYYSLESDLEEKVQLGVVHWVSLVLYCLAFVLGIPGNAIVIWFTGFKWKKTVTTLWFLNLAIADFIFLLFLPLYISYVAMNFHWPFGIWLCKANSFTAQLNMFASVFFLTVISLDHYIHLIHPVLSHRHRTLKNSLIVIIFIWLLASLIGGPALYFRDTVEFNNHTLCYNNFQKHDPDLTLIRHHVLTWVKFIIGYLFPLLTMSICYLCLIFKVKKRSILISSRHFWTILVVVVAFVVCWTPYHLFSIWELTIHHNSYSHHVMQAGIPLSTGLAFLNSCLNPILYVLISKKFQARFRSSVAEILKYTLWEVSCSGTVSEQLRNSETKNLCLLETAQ

EC50 of cAMP inhibition (HeLa) and NanoBiT G protein dissociation (HEK293T): 100 pM
B1: Full-length chemerin (abcam, ab256228) (ligand)
chain: ELTEAQRRGLQVALEEFHKHPPVQWAFQETSVESAVDTPFPAGIFVRLEFKLQQTSCRKRDWKKPECKVRPNGRKRKCLACIKLGSEDKVLGRLVHCPIETQVLREAEEHQETQCLRVQRAGEDPHSFYFPGQFAFS
